The supplement of paper PMC5998384

Experiments:
HeLa Kyoto [1] = assay: solubility in G1/S (NP-40 vs SDS abundance) (log2 ratio); higher = more soluble; conditions: cell cycle stage: G1/S
HeLa Kyoto [2] = assay: melting temperature (median over replicates), in situ; higher = more thermally stable
HeLa Kyoto [3] = assay: solubility change mitosis vs G1/S (difference of NP-40 vs SDS log2 ratios) (log2 ratio difference); higher = more soluble in mitosis
HeLa Kyoto [4] = assay: thermal stability score vs G1/S (z-score of summed log2 fold changes over temperatures); higher = more thermally stable than in G1/S
[5] = cell cycle stage: early G1 (4.5 h after nocodazole release)
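For melting temperature (median over replicates), in situ in this document: HeLa Kyoto cells synchronized by double thymidine or nocodazole block, proteins quantified by TMT10plex mass spectrometry, three independent biological replicates.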
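For solubility change mitosis vs G1/S (difference of NP-40 vs SDS log2 ratios) in this document: synchronized HeLa Kyoto cells (double thymidine block for G1/S, nocodazole release for mitosis), protein amounts in NP-40 versus SDS lysates quantified by mass spectrometry, three biological replicates.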
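For solubility in G1/S (NP-40 vs SDS abundance) in this document: HeLa Kyoto cells arrested at G1/S by double thymidine block, proteins quantified by TMT10plex mass spectrometry in mild NP-40 versus SDS extracts, three biological replicates.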
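For thermal stability score vs G1/S (z-score of summed log2 fold changes over temperatures) in this document: synchronized HeLa Kyoto cells, proteins quantified by TMT10plex mass spectrometry, three biological replicates, mitosis taken 0.5 h after nocodazole release, G1/S directly after double thymidine block.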

MKKKTVCTLNMGDKKYEDMEGEENGDNTISTGLLYSEADRCPICLNCLLEKEVGFPESCNHVFCMTCILKWAETLASCPIDRKPFQAVFKFSALEGYVKVQVKKQLRETKDKKNENSFEKQVSCHENSKSCIRRKAIVREDLLSAKVCDLKWIHRNSLYSETGGKKNAAIKINKPQRSNWSTNQCFRNFFSNMFSSVSHSGESSFTYRAYCTEFIEASEISALIRQKRHELELSWFPDTLPGIGRIGFIPWNVETEVLPLISSVLPRTIFPTSTISFEHFGTSCKGYALAHTQEGEEKKQTSGTSNTRGSRRKPAMTTPTRRSTRNTRAETASQSQRSPISDNSGCDAPGNSNPSLSVPSSAESEKQTRQAPKRKSVRRGRKPPLLKKKLRSSVAAPEKSSSNDSVDEETAESDTSPVLEKEHQPDVDSSNICTVQTHVENQSANCLKSCNEQIEESEKHTANYDTEERVGSSSSESCAQDLPVLVGEEGEVKKLENTGIEANVLCLESEISENILEKGGDPLEKQDQISGLSQSEVKTDVCTVHLPNDFPTCLTSESKVYQPVSCPLSDLSENVESVVNEEKITESSLVEITEHKDFTLKTEELIESPKLESSEGEIIQTVDRQSVKSPEVQLLGHVETEDVEIIATCDTFGNEDFNNIQDSENNLLKNNLLNTKLEKSLEEKNESLTEHPRSTELPKTHIEQIQKHFSEDNNEMIPMECDSFCSDQNESEVEPSVNADLKQMNENSVTHCSENNMPSSDLADEKVETVSQPSESPKDTIDKTKKPRTRRSRFHSPSTTWSPNKDTPQEKKRPQSPSPRRETGKESRKSQSPSPKNESARGRKKSRSQSPKKDIARERRQSQSRSPKRDTTRESRRSESLSPRRETSRENKRSQPRVKDSSPGEKSRSQSRERESDRDGQRRERERRTRKWSRSRSHSRSPSRCRTKSKSSSFGRIDRDSYSPRWKGRWANDGWRCPRGNDRYRKNDPEKQNENTRKEKNDIHLDADDPNSADKHRNDCPNWITEKINSGPDPRTRNPEKLKESHWEENRNENSGNSWNKNFGSGWVSNRGRGRGNRGRGTYRSSFAYKDQNENRWQNRKPLSGNSNSSGSESFKFVEQQSYKRKSEQEFSFDTPADRSGWTSASSWAVRKTLPADVQNYYSRRGRNSSGPQSGWMKQEEETSGQDSSLKDQTNQQVDGSQLPINMMQPQMNVMQQQMNAQHQPMNIFPYPVGVHAPLMNIQRNPFNIHPQLPLHLHTGVPLMQVATPTSVSQGLPPPPPPPPPSQQVNYIASQPDGKQLQGIPSSSHVSNNMSTPVLPAPTAAPGNTGMVQGPSSGNTSSSSHSKASNAAVKLAESKVSVAVEASADSSKTDKKLQIQEKAAQEVKLAIKPFYQNKDITKEEYKEIVRKAVDKVCHSKSGEVNSTKVANLVKAYVDKYKYSRKGSQKKTLEEPVSTEKNIG [SCAF11]
solubility in G1/S (log2) (HeLa Kyoto [1]): -0.87
melting temperature (HeLa Kyoto [2]; cell cycle stage: G1/S): 52.9 °C
melting temperature (HeLa Kyoto [2]; cell cycle stage: mitosis): 53.5 °C
solubility change mitosis (log2) (HeLa Kyoto [3]): 0.664
thermal stability score (HeLa Kyoto [4]; [5]): -1.41
thermal stability score (HeLa Kyoto [4]; cell cycle stage: mitosis): 2.84

MKKVRLKELESRLQQVDGFEKPKLLLEQYPTRPHIAACMLYTIHNTYDDIENKVVADLGCGCGVLSIGTAMLGAGLCVGFDIDEDALEIFNRNAEEFELTNIDMVQCDVCLLSNRMSKSFDTVIMNPPFGTKNNKGTDMAFLKTALEMARTAVYSLHKSSTREHVQKKAAEWKIKIDIIAELRYDLPASYKFHKKKSVDIEVDLIRFSF [METTL5]
solubility in G1/S (log2) (HeLa Kyoto [1]): -0.0292
melting temperature (HeLa Kyoto [2]; cell cycle stage: G1/S): 58.9 °C
melting temperature (HeLa Kyoto [2]; cell cycle stage: mitosis): 63.4 °C
solubility change mitosis (log2) (HeLa Kyoto [3]): -0.277
thermal stability score (HeLa Kyoto [4]; [5]): -0.685
thermal stability score (HeLa Kyoto [4]; cell cycle stage: mitosis): -0.982

MKLGRAVLGLLLLAPSVVQAVEPISLGLALAGVLTGYIYPRLYCLFAECCGQKRSLSREALQKDLDDNLFGQHLAKKIILNAVFGFINNPKPKKPLTLSLHGWTGTGKNFVSKIIAENIYEGGLNSDYVHLFVATLHFPHASNITLYKDQLQLWIRGNVSACARSIFIFDEMDKMHAGLIDAIKPFLDYYDLVDGVSYQKAMFIFLSNAGAERITDVALDFWRSGKQREDIKLKDIEHALSVSVFNNKNSGFWHSSLIDRNLIDYFVPFLPLEYKHLKMCIRVEMQSRGYEIDEDIVSRVAEEMTFFPKEERVFSDKGCKTVFTKLDYYYDD [TOR1A]
solubility in G1/S (log2) (HeLa Kyoto [1]): 0.000474
melting temperature (HeLa Kyoto [2]; cell cycle stage: G1/S): 53.7 °C
melting temperature (HeLa Kyoto [2]; cell cycle stage: mitosis): 53.5 °C
solubility change mitosis (log2) (HeLa Kyoto [3]): -0.0946
thermal stability score (HeLa Kyoto [4]; [5]): 3.37
thermal stability score (HeLa Kyoto [4]; cell cycle stage: mitosis): 4.06

MKLKLNVLTIILLPVHLLITIYSALIFIPWYFLTNAKKKNAMAKRIKAKPTSDKPGSPYRSVTHFDSLAVIDIPGADTLDKLFDHAVSKFGKKDSLGTREILSEENEMQPNGKVFKKLILGNYKWMNYLEVNRRVNNFGSGLTALGLKPKNTIAIFCETRAEWMIAAQTCFKYNFPLVTLYATLGKEAVVHGLNESEASYLITSVELLESKLKTALLDISCVKHIIYVDNKAINKAEYPEGFEIHSMQSVEELGSNPENLGIPPSRPTPSDMAIVMYTSGSTGRPKGVMMHHSNLIAGMTGQCERIPGLGPKDTYIGYLPLAHVLELTAEISCFTYGCRIGYSSPLTLSDQSSKIKKGSKGDCTVLKPTLMAAVPEIMDRIYKNVMSKVQEMNYIQKTLFKIGYDYKLEQIKKGYDAPLCNLLLFKKVKALLGGNVRMMLSGGAPLSPQTHRFMNVCFCCPIGQGYGLTESCGAGTVTEVTDYTTGRVGAPLICCEIKLKDWQEGGYTINDKPNPRGEIVIGGQNISMGYFKNEEKTAEDYSVDENGQRWFCTGDIGEFHPDGCLQIIDRKKDLVKLQAGEYVSLGKVEAALKNCPLIDNICAFAKSDQSYVISFVVPNQKRLTLLAQQKGVEGTWVDICNNPAMEAEILKEIREAANAMKLERFEIPIKVRLSPEPWTPETGLVTDAFKLKRKELRNHYLKDIERMYGGK [ACSL4]
solubility in G1/S (log2) (HeLa Kyoto [1]): -0.0428
melting temperature (HeLa Kyoto [2]; cell cycle stage: G1/S): 48.8 °C
melting temperature (HeLa Kyoto [2]; cell cycle stage: mitosis): 48.7 °C
solubility change mitosis (log2) (HeLa Kyoto [3]): -0.157
thermal stability score (HeLa Kyoto [4]; [5]): 1.35
thermal stability score (HeLa Kyoto [4]; cell cycle stage: mitosis): 2.2

MKLLLLHPAFQSCLLLTLLGLWRTTPEAHASSLGAPAISAASFLQDLIHRYGEGDSLTLQQLKALLNHLDVGVGRGNVTQHVQGHRNLSTCFSSGDLFTAHNFSEQSRIGSSELQEFCPTILQQLDSRACTSENQENEENEQTEEGRPSAVEVWGYGLLCVTVISLCSLLGASVVPFMKKTFYKRLLLYFIALAIGTLYSNALFQLIPEAFGFNPLEDYYVSKSAVVFGGFYLFFFTEKILKILLKQKNEHHHGHSHYASESLPSKKDQEEGVMEKLQNGDLDHMIPQHCSSELDGKAPMVDEKVIVGSLSVQDLQASQSACYWLKGVRYSDIGTLAWMITLSDGLHNFIDGLAIGASFTVSVFQGISTSVAILCEEFPHELGDFVILLNAGMSIQQALFFNFLSACCCYLGLAFGILAGSHFSANWIFALAGGMFLYISLADMFPEMNEVCQEDERKGSILIPFIIQNLGLLTGFTIMVVLTMYSGQIQIG [SLC39A14]
solubility in G1/S (log2) (HeLa Kyoto [1]): -0.0657
melting temperature (HeLa Kyoto [2]; cell cycle stage: G1/S): 55.3 °C
melting temperature (HeLa Kyoto [2]; cell cycle stage: mitosis): 59 °C
solubility change mitosis (log2) (HeLa Kyoto [3]): -0.241
thermal stability score (HeLa Kyoto [4]; [5]): 1.32
thermal stability score (HeLa Kyoto [4]; cell cycle stage: mitosis): 2.81
